In US20040241222A1, “Lipid-polymer-conjugates compositions” (priority 2001, published 2004):

What was measured:
[1] = Kinetics of 3H-labelled liposomes containing lipid-polymer-conjugates after a single intravenous injection to the rat (blood circulation time); assay type: in vivo; conditions: intravenous administration to rats, compared with corresponding PEG-grafted liposomes
Protocol: 100 μl was transferred to a scintillation vial (20 ml).
100 μl of Solvable was added. This was incubated for at least 1 hour.
100 μl of 1 mM EDTA and 200 μl H2O2 30% were added. This mixture was incubated for 24 hours at room temperature and overnight at 50° C. thereafter.
Ultima Gold (10 ml) was added as the scintillation fluid.
Radioactivity was measured by LSC.
The increase of blood circulation time was assessed, wherein: […]

[2] = Storage stability of liposomal preparations (percentage encapsulated prednisolone phosphate versus time); assay type: physicochemical; conditions: prednisolone phosphate-containing liposome suspensions, nitrogen atmosphere, 4° C. (FIG. 3)
Excerpt: FIG. 3 is a graphical representation of the percentage encapsulated prednisolone phosphate in PEG-DSPE and PHEA-DODASuc, respectively, containing liposomal preparations versus time (example 26).

[3] = Particle size and polydispersity of liposomes by dynamic light scattering; assay type: physicochemical; conditions: prednisolone phosphate-containing DPPC/cholesterol liposomes, light scattering (Malvern Zeta-sizer)
Protocol: The lipid loss during preparation of the liposomes was 25%, determined by comparing the final radioactivity of the preparation with the activity before the extrusion procedure. The suspension of liposomes was stored in a nitrogen atmosphere at 4° C.
Liposomes were prepared using the film method, as described in example 23. Instead of egg phosphatidylcholine dipalmitoyl phosphatidylcholine was used. 5 mM HEPES buffer was added to the dry lipid film and shaken during 5 minutes in the presence of glass beads in order to enable complete hydration of the lipid film. The liposomes were sized by extrusion 12 times through 2 stacked PC membranes having pore sizes of […]. The resulting liposome dispersions were dialysed (MWCO 10,000) and average particle sizes were determined using dynamic light scattering technique. See table 1 for the properties of the liposomal preparations.

[4] = Encapsulation efficiency of prednisolone phosphate in liposomes (HPLC); assay type: physicochemical; conditions: prednisolone phosphate-containing DPPC/cholesterol liposomes

Row | Substance | Blood circulation time of the liposomes [1] | Storage stability compared with PEG-DSPE reference liposomes [2] | Mean particle size [3] [nm] | Encapsulation efficiency of the prednisolone phosphate [4] [%]
1 | Poly(2-hydroxyethyl)-L-asparagine DODASuc [Ex. 14] | Results similar to those obtained with the corresponding PEG-grafted liposomes | performed slightly better |  | 
2 | PHEG-Diaminobutane DODASuc [Ex. 8.1] | Results similar to those obtained with the corresponding PEG-grafted liposomes |  |  | 
3 | Poly(D,L-methionine Sulfoxide) DODASuc [Ex. 18] | Results similar to those obtained with the corresponding PEG-grafted liposomes |  |  | 
4 | PEG-distearoylphosphatidylethanol-amine [PEG-DSPE] |  |  | ~90 | 2.6
